# Measurements reported in publication PMC11112752 (Biochemistry, 2024).
# B1: SARS coronavirus 1 nonstructural protein 1 (nsp1) (natural protein)
# chain: MESLVLGVNEKTHVQLSLPVLQVRDVLVRGFGDSVEEALSEAREHLKNGTCGLVELEKGVLPQLEQPYVFIKRSDALSTNHGHKVVELVAEMDGIQYGRSGITLGVLVPHVGETPIAYRNVLLRKNGNKGAGGHSYGIDLKSYDLGDELGTDPIEDYEQNWNTKHGSGALRELTRELNGG
# What was measured:
# [1] = target: the molecule itself; assay: pull-down
# [2] = target: T1, SCOV1 nsp1 (SARS coronavirus 1 (Urbani strain), UniProt P0C6X7 1-180); assay: EMSA; 7 uM nsp1; slow-moving complex; details: protein: recombinant; tags: expressed as GST fusion (pGEX); untagged 19 kDa form described, tag state in EMSA not explicit; label: biotin; hairpin
# [3] = target: T2, SCOV2 nsp1 (SARS coronavirus 2, UniProt P0DTD1 1-180); assay: EMSA; 7 uM nsp1; details: protein: recombinant; tags: expressed as GST fusion (pGEX); label: biotin; hairpin
# [4] = target: T1, SCOV1 nsp1; assay: EMSA; details: protein: recombinant; tags: expressed as GST fusion (pGEX); untagged 19 kDa form described, tag state in EMSA not explicit; label: biotin; stem-loop (-6.83 kcal/mol, RNAfold)
# [5] = target: T1, SCOV1 nsp1; assay: EMSA; prefolded RNA; S and L complexes, n=4; details: protein: recombinant; tags: expressed as GST fusion (pGEX); untagged 19 kDa form described, tag state in EMSA not explicit; label: biotin; hairpin
# [6] = target: T2, SCOV2 nsp1; assay: EMSA; details: protein: recombinant; tags: expressed as GST fusion (pGEX); label: biotin; hairpin
binder,measurement,setting,value
B1,binding result,[1],binds
AUUAAAGGUUUAUACCUUCCCAGGUAACAAAACCAACCAACUUUC (structured_RNA) [SCOV2-SL1],binding result,[2],binds
same,binding result,[3],binds
UCCUGCUUCAACAGUGCUUGGACGGAAC (structured_RNA) [control RNA (EMSA kit)],binding result,[4],no binding
AUAUUAGGUUUUUACCUACCCAGGAAAAGCCAACCAACCUCGAU (structured_RNA) [SCOV1-SL1],Kd,[5],1400 ± 120 nM
same,binding result,[6],binds
